# From publication PMC9453709 (2022)
# Legend:
# [1] = biological target: SARS-CoV-2 wild-type receptor-binding domain (WT-RBD) (SARS-CoV-2, UniProt P0DTC2 319-541); assay: ELISA
# [2] = biological target: SARS-CoV-2 wild-type spike S1 subunit (WT-S1) (SARS-CoV-2); assay: ELISA
Binder,EC50 [1] [ng/mL],EC50 [2] [ng/mL]
"F61, recombinant human immunoglobulin G1 (IgG1) (antibody, V domains shown) VH: EVQLVESGGGLVQPGGSLRLSCEASEIIVNRNYMNWVRQAPGKGLEWVSIIYPGGSTFYADSVKGRFTISRDNSKNTMYLQMNSLRAEDTAVYYCARSYGDFYVDFWGQGTLVTVSS VL: QSVLTQPPSVSAAPGQKVTISCSGSSSNIGNNYVSWYQQLPGTAPKLLIYDNNKRPSGIPDRFSGSKSGTSATLGITGLQTGDEADYYCGTWDSSLSAWVFGGGTKLTVL",3.01,3.12
"D2, recombinant human immunoglobulin G1 (IgG1) (antibody, V domains shown) VH: EVQLVESGGGLVQPGRSLTLSCGASGFTFEDYAMHWVRQAPGKGLEWVSGIDWNSGVIGYADSVKGRFIISRDNAKNSLYLHMRSLTAEDTALYYCAKDVYSESGSGSYYDYWGQGTLVTVSS VL: QSVLTQPPSVSAAPGQKVAISCSGSTSNIGDNFVSWYQQFPGTAPKLLLYDDARRPSGIPDRFSGSKSGTSATLGITGLQTGDEAVYFCSTWDNSLNVVLFGGGTKLTVL",4.41,3.53
